Assay [1] has as its target T1, human TF on cells (MDA-MB-231, BxPC-3 and other tumor cells with high TF expression) (human, UniProt P13726 33-295).
T1 construct: whole, on cells; Endogenous expression on tumor cell lines; also called cell surface TF
Nature of the assay: flow cytometry on MDA-MB-231 cells, antibody at 10 µg/mL. For orientation: A flow cytometer gives signals particle by particle.

In assay [2] the target is T1, human TF on cells (MDA-MB-231, BxPC-3 …). Nature of the assay: flow cytometry on MDA-MB-231 cells, antibody at 1 µg/mL.

Residue numbers refer to the chain shown, from its start.

B1: TF-mAb-Ch (antibody, V domains shown)
VH: QVQLQQPGAELVRPGASVKLSCKASGYSFISYWMNWVKQRPGQGLEWIGMIYPADSETRLNQKFKDKATLTVDKSSSTAYMQLSSPTSEDSAVYYCAREDYGSSDYWGQGTTLTVSS
VL: EILLTQSPAIIAASPGEKVTITCSASSSVSYMNWYLQKPGSSPKIWIYGISNLASGVPARFSGSGSGTSFSFTINSMETEDVATYYCQQKSSFPWTFGGGTKLEIK
notes: Variable regions of TF-mAb-SC1 cloned onto human IgG1 heavy chain constant region and human kappa constant region; also called human-mouse chimeric antibody
As to B1, the values for the MFI in assay [1] and in assay [2] were 3540 MFI and 3370 MFI, respectively.

B2: TF-mAb-H42 (antibody, V domains shown)
VH: QVQLVQSGAEVKKPGASVKVSCKASGYSFISYWMNWVRQAPGQGLEWIGMIYPADSETRLNQKFKDRATLTVDKSTSTAYMELSSLRSEDTAVYYCAREDYGSSDYWGQGTTVTVSS
VL: DIQLTQSPSSLSASVGDRVTITCSASSSVSYMNWYQQKPGKSPKIWIYGISNLASGVPSRFSGSGSGTDFTLTISSLQPEDFATYYCQQKSSFPWTFGGGTKVEIK
On to B2, for which the values for the MFI in assay [1] and in assay [2] were 3350 MFI and 2970 MFI, respectively.

B3: TF-mAb-H47 (antibody, V domains shown)
VH: B2 VH
VL: EIVLTQSPDFQSVTPKEKVTITCSASSSVSYMNWYQQKPDQSPKIWIYGISNLASGVPSRFSGSGSGTDFTLTINSLEAEDAATYYCQQKSSFPWTFGGGTKVEIK
As to B3, the MFI came out at 3150 MFI in assay [1] and 3000 MFI in assay [2].

B4: TF-mAb-H43 (antibody, V domains shown)
VH: QVQLVQSGSELKKPGASVKVSCKASGYSFISYWMNWVRQAPGQGLEWIGMIYPADSETRLNQKFKDRAVLSVDKSVSTAYLQICSLKAEDTAVYYCAREDYGSSDYWGQGTTVTVSS
VL: B2 VL
For the molecule B4, the figures for the MFI in assay [1] and in assay [2] were 3300 MFI and 2820 MFI, respectively.

B5: TF-mAb-H48 (antibody, V domains shown)
VH: B4 VH
VL: B3 VL
Consider B5, for which the values for the MFI in assay [1] and in assay [2] were 2900 MFI and 2610 MFI, respectively.

B6: TF-mAb-H30 (antibody, V domains shown)
VH: EVQLVQSGAEVKKPGESLKISCKGSGYSFTSYWMNWVRQMPGKGLEWMGMIYPADSETRLNQKFKDKATLSVDKSISTAYLQWSSLKASDTAMYYCAREDYGSSDYWGQGTTVTVSS
VL: EIVLTQSPATLSLSPGERATLSCSASSSVSYMNWYQQKPGQAPRIWIYGISNLASGIPARFSGSGSGTDFTLTISSLEPEDFAVYYCQQKSSFPWTFGGGTKVEIK
Turning to B6, the MFI in assay [1] worked out at 3240 MFI; in assay [2], 2930 MFI.

B7: TF-mAb-H38 (antibody, V domains shown)
VH: B4 VH
VL: B6 VL with A42S, I57V
In the case of B7, the MFI in assay [1] turned out to be 3150 MFI; in assay [2] it was 2870 MFI.

B8: TF-mAb-H40 (antibody, V domains shown)
VH: B6 VH
VL: B2 VL
As for B8, the MFI in assay [1] stood at 3310 MFI; in assay [2], 3180 MFI.

B9: TF-mAb-H32 (antibody, V domains shown)
VH: B2 VH
VL: B6 VL
With B9, the MFI in assay [1] is 3010 MFI; in assay [2], 2400 MFI.

B10: TF-mAb-H45 (antibody, V domains shown)
VH: B6 VH
VL: B3 VL
Turning to B10, the MFI in assay [1] was found to be 3480 MFI; in assay [2], 3100 MFI.

B11: TF-mAb-H39 (antibody, V domains shown)
VH: B6 VH with K67Q
VL: B2 VL
Take B11: the MFI in assay [1] came to 3380 MFI; in assay [2], 3180 MFI.

B12: TF-mAb-H34 (antibody, V domains shown)
VH: B6 VH with K67Q
VL: B6 VL with A42S, I57V
For B12, the MFI in assay [1] was 3270 MFI; in assay [2], 2460 MFI.

B13: TF-mAb-H37 (antibody, V domains shown)
VH: B2 VH
VL: B6 VL with A42S, I57V
With B13, the MFI in assay [1] worked out at 2990 MFI; in assay [2], 2460 MFI.

B14: TF-mAb-H41 (antibody, V domains shown)
VH: B6 VH with R38K
VL: B2 VL
As to B14, the MFI was 3610 MFI in assay [1] and 3000 MFI in assay [2].

B15: TF-mAb-H46 (antibody, V domains shown)
VH: B6 VH with R38K
VL: B3 VL
Consider B15, for which the MFI in assay [1] turned out to be 3410 MFI; in assay [2], 3120 MFI.

B16: TF-mAb-H29 (antibody, V domains shown)
VH: B6 VH with K67Q
VL: B6 VL
As for B16, the figures for the MFI in assay [1] and in assay [2] were 3580 MFI and 2960 MFI, respectively.

B17: TF-mAb-H44 (antibody, V domains shown)
VH: B6 VH with K67Q
VL: B3 VL
Regarding B17, the MFI in assay [1] stood at 3430 MFI; in assay [2] it was 3200 MFI.

B18: TF-mAb-H36 (antibody, V domains shown)
VH: B6 VH with R38K
VL: B6 VL with A42S, I57V
B18: the MFI in assay [1] came out at 3090 MFI; in assay [2] it was 3040 MFI.

B19: TF-mAb-H33 (antibody, V domains shown)
VH: B4 VH
VL: B6 VL
B19: the MFI in assay [1] amounted to 2840 MFI; in assay [2], 2420 MFI.

B20: TF-mAb-H31 (antibody, V domains shown)
VH: B6 VH with R38K
VL: B6 VL
On to B20, for which the MFI in assay [1] came out at 3470 MFI; in assay [2], 3080 MFI.

B21: TF-mAb-H35 (antibody, V domains shown)
VH: B6 VH
VL: B6 VL with A42S, I57V
Consider B21, for which the MFI came out at 3020 MFI in assay [1] and 2930 MFI in assay [2].

The values are drawn from patent US20230138930A1 (FUDAN UNIVERSITY, published 2023).
